Results published in patent US9580469B2, “Peptides for the treatment and early diagnosis of Alzheimer's disease and other tauopathies” (priority 2012, dated 2017).
Where no end group is shown, it is not given here. [ ]: non-standard residue; d: D form.

Key:
Assay type in all cases: biochemical
tau full-length protein = target: T1, tau full-length protein (Homo sapiens, UniProt P10636); test: Dynamic light scattering (DLS) measurements of tau aggregation with arachidonic acid; conditions: for Mass Day 1 / Mass Day 8 / Particle size Day 1 / Particle size Day 8: DLS, 1 μg/ml tau full-length protein, 100 μM arachidonic acid (AA), peptide at ratio 1:10; for Effect on aggregation of tau in DLS (in words): tau full-length protein, 100 μM arachidonic acid, peptide ratio 1:10
T1 construct: Since this is not possible for the full-length tau protein (441 amino acids)
Procedure: For this purpose. 1 μg/ml tau full-length protein was analyzed using 100 μM arachidonic acid and the respective peptide at a ratio of 1:10. Tau without peptide and without the addition of arachidonic acid was measured for control purposes. […] DLS was carried out with an acquisition time of 5 seconds for 3 minutes at room temperature.

tau fibrils = tau fibrils (Homo sapiens, UniProt P10636); test: Effect of peptides on existing tau fibrils
full-length tau protein = full-length tau protein (Homo sapiens, UniProt P10636); test: ThT aggregation assay of tau with 100 μM arachidonic acid (relative fibril content); conditions: 5 μM tau, tau:peptide 1:1 and 1:10, 24 hours
Procedure: (§1) In mirror image phage display selections, the selection rounds are carried out against a D-enantiomer as the target, which must be generated synthetically. Since this is not possible for the full-length tau protein (441 amino acids), the selections were carried out against the D-enantiomer of a 6-mer tau fragment (PHF-6), which can be found in tau repeats R2 and R3 and, according to various studies, forms the core of the neurofibrillary tangles (von Bergen, M., Assembly of τ protein into Alzheimer paired helical filaments depends on a local sequence motif (306VQIVYK311) forming β structure PNAS, 1999. 97(10): p. 5129-5134; Miller, M., Synergistic Interactions between Repeats in Tau Protein and Aβ Amyloids May Be Responsible for Accelerated Aggregation via Polymorphic States. 5172-5181, 2011. 50(23): p. 5172-5181). Since aggregated material is to serve as the target for the selection, and monomeric tau protein has important physiological functions and must not be inhibited in vivo, only fribriilary material was used for the selection. […]
(§2) The concentration of tau was 5 μM; the peptides were added at a ratio of 1:1 and 1:10 (tau:peptide). The fluorescence of 5 μM tau after 24 hours of incubation was set at 100%, and the values and standard deviations of the remaining incubations are indicated as percentages of this maximal value.

PHF-6 = PHF-6 (Homo sapiens, UniProt P10636); test: ThT aggregation assay of PHF-6 (relative fibril content); conditions: 25 μM PHF-6, PHF-6:peptide 1:1 and 1:10, two hours of incubation
Procedure: as §1, with “5172-5181).” for “5172-5181). Since aggregated material is to serve as the target for the selection, and monomeric tau protein has important physiological functions and must not be inhibited in vivo, only fribriilary material was used for the selection.”
as §2, with “PHF-6” for “tau”, “25” for “5”, “measured” for “added”, “(PHF-6:peptide) and as controls individually in a 25 μM concentration (not shown).” for “(tau:peptide).”, “two” for “24”

Sequence of tau fibrils (P10636 1-441 isoform P10636-8): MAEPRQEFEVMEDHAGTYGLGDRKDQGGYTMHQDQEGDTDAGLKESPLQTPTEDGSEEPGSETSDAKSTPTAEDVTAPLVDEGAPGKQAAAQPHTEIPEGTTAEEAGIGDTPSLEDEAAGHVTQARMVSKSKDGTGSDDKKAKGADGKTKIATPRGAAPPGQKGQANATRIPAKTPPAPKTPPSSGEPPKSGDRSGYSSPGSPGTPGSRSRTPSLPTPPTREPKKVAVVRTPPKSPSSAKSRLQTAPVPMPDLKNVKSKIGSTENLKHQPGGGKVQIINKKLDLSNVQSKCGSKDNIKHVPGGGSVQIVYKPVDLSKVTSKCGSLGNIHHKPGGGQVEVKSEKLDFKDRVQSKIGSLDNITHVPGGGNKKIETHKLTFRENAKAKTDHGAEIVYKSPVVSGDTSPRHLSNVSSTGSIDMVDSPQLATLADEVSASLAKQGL
T1 sequence (P10636 1-441 isoform P10636-8): as above
Sequence of full-length tau protein (P10636 1-441 isoform P10636-8): as above

Substance	Mass Day 1 (tau full-length protein)	Mass Day 8 (tau full-length protein)	Effect on existing tau fibrils (tau fibrils)	Particle size Day 1 (tau full-length protein)	Particle size Day 8 (tau full-length protein)	Effect on aggregation of tau in DLS (in words) (tau full-length protein)	Inhibition of fibrillization / aggregation of the full-length tau protein (full-length tau protein)	Inhibition of fibrillization / aggregation of the full-length tau protein (full-length tau protein; listed as peptide selected by Sievers)	Inhibition of aggregation / fibril formation of PHF-6 (PHF-6)
TTSLQMRLYYPP (not fully specified (some residues)) [TL28, label not defined in the text]	≧99%	100%							
ppyylxmqlstt ([dP][dP][dY][dY][dL][dR][dM][dQ][dL][dS][dT][dT]) [TD28ri, retro-inverso peptide of …]	100%	100%	convert tau fibrils into large amorphous aggregates	55-fold	44-fold	formation of very large aggregates			
ttslqmrlyypp ([dT][dT][dS][dL][dQ][dM][dR][dL][dY][dY][dP][dP]) [TD28]	100%	100%	convert tau fibrils into large amorphous aggregates	42-fold	48-fold	formation of very large aggregates			

The next lines start with results.

Mass Day 1 (tau full-length protein)	Mass Day 8 (tau full-length protein)	Substance	Effect on existing tau fibrils (tau fibrils)	Particle size Day 1 (tau full-length protein)	Particle size Day 8 (tau full-length protein)	Effect on aggregation of tau in DLS (in words) (tau full-length protein)	Inhibition of fibrillization / aggregation of the full-length tau protein (full-length tau protein)	Inhibition of fibrillization / aggregation of the full-length tau protein (full-length tau protein; listed as peptide selected by Sievers)	Inhibition of aggregation / fibril formation of PHF-6 (PHF-6)
≧99%	≧98%	aptilrlhslga	dissolve existing tau fibrils	1-fold	1-fold				
≧99%	≧99%	kntpqhrklrls ([dK][dN][dT][dP][dQ][dH][dR][dK][dL][dR][dL][dS]) [D-peptide from selections against D-PHF-6]	dissolve existing tau fibrils	1-fold	1-fold				
100%	≧98%	tlkivw ([dT][dL][dK][dI][dV][dW]) [Sievers, reference compound]				showed no effect on the aggregation of the full-length tau protein	not the aggregation of the full-length tau protein	in most approaches showed no effect at all	inhibited the aggregation of PHF-6 to a similar degree as that of the peptides we developed
